Read-outs that look alike come from different tables or passages of the source.

To fix the notation:
B3: 6D8 scFv (scFv, V domains shown)
VH: QVQLQQSGDELVKPGASVKLSCTVSGFNIKDDFIHWMKQRPEQGLEWIGRIDPANGYTKYAPKFQDKATMTADTSSNTAYLQLSSLASEDAAVYYCATYGVAYWGQGTLVTVSA
VL: DIVLTQSPASLAVSLGQRATISCKASQSVDHDGDSYMNWFQQKPGQSPKLLIYAASNLESGIPARFSGSGSGTDFTLNIHPVEEEDAATYYCQQTNEDPYTFGGGTKLEIK

Test in all cases: ITC
For orientation: Isothermal titration calorimetry measures the heat released or taken up as one component is titrated into another.

The assay “6D8 scFv” has as its target B3.
Assay [1] deals with T1, full-length recombinant 3D7 MSP2 (Plasmodium falciparum, UniProt P50498 21-246).
T1 chain: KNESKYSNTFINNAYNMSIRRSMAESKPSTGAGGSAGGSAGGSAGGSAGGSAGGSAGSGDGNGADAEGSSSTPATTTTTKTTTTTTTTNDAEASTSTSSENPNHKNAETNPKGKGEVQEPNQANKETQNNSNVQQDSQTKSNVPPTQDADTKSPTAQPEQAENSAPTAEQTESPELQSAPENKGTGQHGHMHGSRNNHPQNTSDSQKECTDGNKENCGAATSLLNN

The target of assay [2] is T2, full-length recombinant FC27 MSP2 (Plasmodium falciparum, UniProt P19260 21-261).
T2 chain: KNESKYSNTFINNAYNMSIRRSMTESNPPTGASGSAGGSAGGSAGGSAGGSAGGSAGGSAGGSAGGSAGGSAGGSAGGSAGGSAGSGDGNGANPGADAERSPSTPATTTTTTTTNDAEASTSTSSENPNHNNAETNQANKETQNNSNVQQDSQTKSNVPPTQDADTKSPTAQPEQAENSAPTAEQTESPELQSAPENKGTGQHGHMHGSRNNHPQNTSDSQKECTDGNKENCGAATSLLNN

In assay [3] the target is T1, full-length recombinant 3D7 MSP2.
The target of assay [4] is T2, full-length recombinant FC27 MSP2.

B1: 3D7-MSP2_(14-30) (peptide)
chain: NAYNMSIRRSMAESKPS
One may read the Kd as the concentration at which binding is half-saturated. As to B1, the Kd with 6D8 scFv was found to be 64 nM.

B2: mouse monoclonal antibody 6D8 (antibody, V domains shown)
VH: QVQLQQSGDELVKPGASVKLSCTVSGFNIKDDFIHWMKQRPEQGLEWIGRIDPANGYTKYAPKFQDKATMTADTSSNTAYLQLSSLASEDAAVYYCATYGVAYWGQGTLVTVSA
VL: DIVLTQSPASLAVSLGQRATISCKASQSVDHDGDSYMNWFQQKPGQSPKLLIYAASNLESGIPARFSGSGSGTDFTLNIHPVEEEDAATYYCQQTNEDPYTFGGGTKLEIK
As to B2, the equilibrium dissociation constant (Kd) in assay [1] was determined as 64 nM; in assay [2], 16 nM.

For B3, the Kd was found to be 61 nM in assay [3], 13 nM in assay [4], 61 nM in assay [1] and 13 nM in assay [2].

B4: FC27-MSP2_(14-30) (peptide)
chain: NAYNMSIRRSMANEGSN
B4 returned a Kd with 6D8 scFv of 16 nM.
